{
  "source": "paper PMC2875725",
  "binders": {"B1": {"name": "NS5Bmut RNA oligonucleotide (ssRNA)", "RNA": "CCCCACAUUCUCACCCCCUC", "modifications": "5'-amine"}},
  "molecular_target": "HCV NS5B RNA-dependent RNA polymerase (Hepatitis C virus (strain ), UniProt Q9WMX2 2421-3010)",
  "sequence (Q9WMX2 2421-3010)": "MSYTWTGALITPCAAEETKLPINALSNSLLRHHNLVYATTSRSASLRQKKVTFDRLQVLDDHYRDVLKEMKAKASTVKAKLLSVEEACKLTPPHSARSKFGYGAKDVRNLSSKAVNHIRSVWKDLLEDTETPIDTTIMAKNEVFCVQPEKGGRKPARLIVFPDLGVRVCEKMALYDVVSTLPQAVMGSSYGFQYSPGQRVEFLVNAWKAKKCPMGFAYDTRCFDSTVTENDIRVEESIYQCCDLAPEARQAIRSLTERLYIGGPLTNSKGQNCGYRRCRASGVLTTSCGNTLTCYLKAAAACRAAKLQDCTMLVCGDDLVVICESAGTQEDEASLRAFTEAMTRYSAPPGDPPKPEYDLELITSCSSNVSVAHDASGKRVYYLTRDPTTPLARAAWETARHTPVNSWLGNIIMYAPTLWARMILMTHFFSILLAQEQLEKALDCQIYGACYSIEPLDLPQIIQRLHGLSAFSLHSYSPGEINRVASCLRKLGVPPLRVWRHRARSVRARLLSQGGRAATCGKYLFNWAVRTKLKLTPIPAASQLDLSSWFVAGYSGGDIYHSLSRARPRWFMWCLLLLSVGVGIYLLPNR",
  "test": "protein chip with QD fluorescence",
  "data": [
    {"binder": "B1", "values": [
      {"measurement": "binding result", "value": "no binding"}
    ]}
  ]
}
